Reference: paper PMC10986502
pKd: −log10 of the molar value.

Test system: His6-Fur (Riemerella anatipestifer CH-1)
Assay: EMSA
Conditions: 5 mM Mn2+ (surrogate for Fe2+); EMSA: 2.5% glycerol, 0.05% NP-40, 5 mM MgCl2, 1 uM ZnSO4, 5 mM MnCl2; 1 ug DNA, 2-8 ug Fur in 20 uL; room temperature 20 min; pH and salt not given; 6% native …

rhuB promoter (194 bp)
pKd: 8.37
